Data on 17 molecules can be found in US20170342144A1 (Sanofi, published 2017).

One test addresses T1, human TGFβ2 (human, UniProt P61812 303-414).
T1 construct: also called TGFβ2 homodimer
T1 sequence: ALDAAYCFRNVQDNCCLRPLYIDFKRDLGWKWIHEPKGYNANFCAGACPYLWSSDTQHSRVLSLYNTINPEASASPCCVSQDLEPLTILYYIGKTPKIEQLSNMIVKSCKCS
Put plainly: Biacore off-rate vs wt GC1008, 50 nM. The text has this: (§1) Plasmids encoding either the GC1008 heavy chain or light chain were used as a template in PCR-based mutagenesis reactions. Mutations to the encoding DNA were made to create 155 single amino acid substitutions of the encoded heavy chain amino acid sequence and one single amino acid substitution of the encoded light chain amino acid sequence. A QuikChange® Lightning Site-Directed Mutagenesis kit (Agilent Technologies, Santa Clara Calif.) was used according to the manufacturer's instructions to create DNA mutations using a set of forward and reverse primers, either designed for a specific amino acid or for all 20 amino acids with a degenerate codon (NNK). After sequencing confirmation, identified mutant DNA was paired with a wild-type light or heavy chain DNA for transfection into an Expi293F™ host cell suspension (Life Techonologies Corp., Grand Island, N.Y.). At 4 days post-transfection, conditioned media (1 mL) was harvested and purified using a 1 mL Protein A PhyTip® column (PhyNexus, Inc., San Jose, Calif.) and a PureSpeed™ 12-channel pipette (Rainin Instrument LLC, Oakland, Calif.). Purified variant antibody samples were analyzed in duplicate on a Biacore® 3000 (GE Healthcare) at 50 nM concentrations, using the 100 RU level TGFβ1, 2, and 3 immobilized surfaces. The off-rate (kd) of the variants was divided by the kd of the wild-type control to obtain the fold change in the kd. […] A heat map was generated to visualize the results. Variants that completely lost affinity for TGFβ were shown in red without numbers.

In the next test the target is T2, human TGFβ1 (human, UniProt P01137 279-390).
T2 construct: also called TGFβ1 homodimer
T2 sequence (P01137 279-390 limits assumed): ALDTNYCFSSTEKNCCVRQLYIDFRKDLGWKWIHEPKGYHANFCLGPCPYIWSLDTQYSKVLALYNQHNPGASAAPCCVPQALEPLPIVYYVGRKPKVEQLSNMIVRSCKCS
Kind of test: Biacore off-rate vs wt GC1008, 50 nM.
Excerpt: as §1
(In general: SPR reads the build-up and loss of mass on a sensor chip optically.)

B1: D56P (antibody, V domains shown)
VH: QVQLVQSGAEVKKPGSSVKVSCKASGYTFSSNVISWVRQAPGQGLEWMGGVIPIVPIANYAQRFKGRVTITADESTSTTYMELSSLRSEDTAVYYCASTLGLVLDAMDYWGQGTLVTVSS
VL: ETVLTQSPGTLSLSPGERATLSCRASQSLGSSYLAWYQQKPGQAPRLLIYGASSRAPGIPDRFSGSGSGTDFTLTISRLEPEDFAVYYCQQYADSPITFGQGTRLEIK
notes: GC1008 IgG4 variant
In the case of B1, the kd var/kd wt in the test with human TGFβ2 came to 1.9.

B2: S30A (antibody, V domains shown)
VH: QVQLVQSGAEVKKPGSSVKVSCKASGYTFASNVISWVRQAPGQGLEWMGGVIPIVDIANYAQRFKGRVTITADESTSTTYMELSSLRSEDTAVYYCASTLGLVLDAMDYWGQGTLVTVSS
VL: ETVLTQSPGTLSLSPGERATLSCRASQSLGSSYLAWYQQKPGQAPRLLIYGASSRAPGIPDRFSGSGSGTDFTLTISRLEPEDFAVYYCQQYADSPITFGQGTRLEIK
notes: GC1008 IgG4 variant
As for B2, the kd var/kd wt with human TGFβ1 amounted to 0.7.

B3: E74A (antibody, V domains shown)
VH: QVQLVQSGAEVKKPGSSVKVSCKASGYTFSSNVISWVRQAPGQGLEWMGGVIPIVDIANYAQRFKGRVTITADASTSTTYMELSSLRSEDTAVYYCASTLGLVLDAMDYWGQGTLVTVSS
VL: ETVLTQSPGTLSLSPGERATLSCRASQSLGSSYLAWYQQKPGQAPRLLIYGASSRAPGIPDRFSGSGSGTDFTLTISRLEPEDFAVYYCQQYADSPITFGQGTRLEIK
notes: GC1008 IgG4 variant
B3: in the test with human TGFβ1, the kd var/kd wt worked out at 1.

B4: E74H (antibody, V domains shown)
VH: QVQLVQSGAEVKKPGSSVKVSCKASGYTFSSNVISWVRQAPGQGLEWMGGVIPIVDIANYAQRFKGRVTITADHSTSTTYMELSSLRSEDTAVYYCASTLGLVLDAMDYWGQGTLVTVSS
VL: ETVLTQSPGTLSLSPGERATLSCRASQSLGSSYLAWYQQKPGQAPRLLIYGASSRAPGIPDRFSGSGSGTDFTLTISRLEPEDFAVYYCQQYADSPITFGQGTRLEIK
notes: GC1008 IgG4 variant
B4 gave a kd var/kd wt with human TGFβ1 of 0.9.

B5: I54S (antibody, V domains shown)
VH: QVQLVQSGAEVKKPGSSVKVSCKASGYTFSSNVISWVRQAPGQGLEWMGGVIPSVDIANYAQRFKGRVTITADESTSTTYMELSSLRSEDTAVYYCASTLGLVLDAMDYWGQGTLVTVSS
VL: ETVLTQSPGTLSLSPGERATLSCRASQSLGSSYLAWYQQKPGQAPRLLIYGASSRAPGIPDRFSGSGSGTDFTLTISRLEPEDFAVYYCQQYADSPITFGQGTRLEIK
notes: GC1008 IgG4 variant
Take B5: the kd var/kd wt in the test with human TGFβ2 was found to be 1.7.

B6: S30H (antibody, V domains shown)
VH: QVQLVQSGAEVKKPGSSVKVSCKASGYTFHSNVISWVRQAPGQGLEWMGGVIPIVDIANYAQRFKGRVTITADESTSTTYMELSSLRSEDTAVYYCASTLGLVLDAMDYWGQGTLVTVSS
VL: ETVLTQSPGTLSLSPGERATLSCRASQSLGSSYLAWYQQKPGQAPRLLIYGASSRAPGIPDRFSGSGSGTDFTLTISRLEPEDFAVYYCQQYADSPITFGQGTRLEIK
notes: GC1008 IgG4 variant
In the case of B6, the results for the kd var/kd wt with human TGFβ1 and in the test with human TGFβ2 were 0.9 and 0.8, respectively.

B7: I54G (antibody, V domains shown)
VH: QVQLVQSGAEVKKPGSSVKVSCKASGYTFSSNVISWVRQAPGQGLEWMGGVIPGVDIANYAQRFKGRVTITADESTSTTYMELSSLRSEDTAVYYCASTLGLVLDAMDYWGQGTLVTVSS
VL: ETVLTQSPGTLSLSPGERATLSCRASQSLGSSYLAWYQQKPGQAPRLLIYGASSRAPGIPDRFSGSGSGTDFTLTISRLEPEDFAVYYCQQYADSPITFGQGTRLEIK
notes: GC1008 IgG4 variant
Turning to B7, the kd var/kd wt with human TGFβ2 is 1.8.

B8: I52P (antibody, V domains shown)
VH: QVQLVQSGAEVKKPGSSVKVSCKASGYTFSSNVISWVRQAPGQGLEWMGGVPPIVDIANYAQRFKGRVTITADESTSTTYMELSSLRSEDTAVYYCASTLGLVLDAMDYWGQGTLVTVSS
VL: ETVLTQSPGTLSLSPGERATLSCRASQSLGSSYLAWYQQKPGQAPRLLIYGASSRAPGIPDRFSGSGSGTDFTLTISRLEPEDFAVYYCQQYADSPITFGQGTRLEIK
notes: GC1008 IgG4 variant
Molecule B8 yielded a kd var/kd wt with human TGFβ2 of 1.9.

B9: E74P (antibody, V domains shown)
VH: QVQLVQSGAEVKKPGSSVKVSCKASGYTFSSNVISWVRQAPGQGLEWMGGVIPIVDIANYAQRFKGRVTITADPSTSTTYMELSSLRSEDTAVYYCASTLGLVLDAMDYWGQGTLVTVSS
VL: ETVLTQSPGTLSLSPGERATLSCRASQSLGSSYLAWYQQKPGQAPRLLIYGASSRAPGIPDRFSGSGSGTDFTLTISRLEPEDFAVYYCQQYADSPITFGQGTRLEIK
notes: GC1008 IgG4 variant
As to B9, the kd var/kd wt in the test with human TGFβ1 came to 0.8.

B10: E74D (antibody, V domains shown)
VH: QVQLVQSGAEVKKPGSSVKVSCKASGYTFSSNVISWVRQAPGQGLEWMGGVIPIVDIANYAQRFKGRVTITADDSTSTTYMELSSLRSEDTAVYYCASTLGLVLDAMDYWGQGTLVTVSS
VL: ETVLTQSPGTLSLSPGERATLSCRASQSLGSSYLAWYQQKPGQAPRLLIYGASSRAPGIPDRFSGSGSGTDFTLTISRLEPEDFAVYYCQQYADSPITFGQGTRLEIK
notes: GC1008 IgG4 variant
For B10, the kd var/kd wt in the test with human TGFβ1 is 0.9; with human TGFβ2, 0.8.

B11: E74G (antibody, V domains shown)
VH: QVQLVQSGAEVKKPGSSVKVSCKASGYTFSSNVISWVRQAPGQGLEWMGGVIPIVDIANYAQRFKGRVTITADGSTSTTYMELSSLRSEDTAVYYCASTLGLVLDAMDYWGQGTLVTVSS
VL: ETVLTQSPGTLSLSPGERATLSCRASQSLGSSYLAWYQQKPGQAPRLLIYGASSRAPGIPDRFSGSGSGTDFTLTISRLEPEDFAVYYCQQYADSPITFGQGTRLEIK
notes: GC1008 IgG4 variant
As for B11, the results for the kd var/kd wt with human TGFβ1 and with human TGFβ2 were 1 and 0.7, respectively.

B12: E74Y (antibody, V domains shown)
VH: QVQLVQSGAEVKKPGSSVKVSCKASGYTFSSNVISWVRQAPGQGLEWMGGVIPIVDIANYAQRFKGRVTITADYSTSTTYMELSSLRSEDTAVYYCASTLGLVLDAMDYWGQGTLVTVSS
VL: ETVLTQSPGTLSLSPGERATLSCRASQSLGSSYLAWYQQKPGQAPRLLIYGASSRAPGIPDRFSGSGSGTDFTLTISRLEPEDFAVYYCQQYADSPITFGQGTRLEIK
notes: GC1008 IgG4 variant
For B12, in the test with human TGFβ1, the kd var/kd wt was 0.7.

B13: E74S (antibody, V domains shown)
VH: QVQLVQSGAEVKKPGSSVKVSCKASGYTFSSNVISWVRQAPGQGLEWMGGVIPIVDIANYAQRFKGRVTITADSSTSTTYMELSSLRSEDTAVYYCASTLGLVLDAMDYWGQGTLVTVSS
VL: ETVLTQSPGTLSLSPGERATLSCRASQSLGSSYLAWYQQKPGQAPRLLIYGASSRAPGIPDRFSGSGSGTDFTLTISRLEPEDFAVYYCQQYADSPITFGQGTRLEIK
notes: GC1008 IgG4 variant
For the molecule B13, the kd var/kd wt was 0.8 with human TGFβ1 and 0.7 with human TGFβ2.

B14: E74Q (antibody, V domains shown)
VH: QVQLVQSGAEVKKPGSSVKVSCKASGYTFSSNVISWVRQAPGQGLEWMGGVIPIVDIANYAQRFKGRVTITADQSTSTTYMELSSLRSEDTAVYYCASTLGLVLDAMDYWGQGTLVTVSS
VL: ETVLTQSPGTLSLSPGERATLSCRASQSLGSSYLAWYQQKPGQAPRLLIYGASSRAPGIPDRFSGSGSGTDFTLTISRLEPEDFAVYYCQQYADSPITFGQGTRLEIK
notes: GC1008 IgG4 variant
In the case of B14, the kd var/kd wt is 1.2 with human TGFβ1 and 0.8 in the test with human TGFβ2.

B15: E74T (antibody, V domains shown)
VH: QVQLVQSGAEVKKPGSSVKVSCKASGYTFSSNVISWVRQAPGQGLEWMGGVIPIVDIANYAQRFKGRVTITADTSTSTTYMELSSLRSEDTAVYYCASTLGLVLDAMDYWGQGTLVTVSS
VL: ETVLTQSPGTLSLSPGERATLSCRASQSLGSSYLAWYQQKPGQAPRLLIYGASSRAPGIPDRFSGSGSGTDFTLTISRLEPEDFAVYYCQQYADSPITFGQGTRLEIK
notes: GC1008 IgG4 variant
In the case of B15, the kd var/kd wt in the test with human TGFβ1 was 0.8; with human TGFβ2, 0.9.

B16: V55M (antibody, V domains shown)
VH: QVQLVQSGAEVKKPGSSVKVSCKASGYTFSSNVISWVRQAPGQGLEWMGGVIPIMDIANYAQRFKGRVTITADESTSTTYMELSSLRSEDTAVYYCASTLGLVLDAMDYWGQGTLVTVSS
VL: ETVLTQSPGTLSLSPGERATLSCRASQSLGSSYLAWYQQKPGQAPRLLIYGASSRAPGIPDRFSGSGSGTDFTLTISRLEPEDFAVYYCQQYADSPITFGQGTRLEIK
notes: GC1008 IgG4 variant
B16 showed a kd var/kd wt with human TGFβ2 of 1.7.

B17: I54Q (antibody, V domains shown)
VH: QVQLVQSGAEVKKPGSSVKVSCKASGYTFSSNVISWVRQAPGQGLEWMGGVIPQVDIANYAQRFKGRVTITADESTSTTYMELSSLRSEDTAVYYCASTLGLVLDAMDYWGQGTLVTVSS
VL: ETVLTQSPGTLSLSPGERATLSCRASQSLGSSYLAWYQQKPGQAPRLLIYGASSRAPGIPDRFSGSGSGTDFTLTISRLEPEDFAVYYCQQYADSPITFGQGTRLEIK
notes: GC1008 IgG4 variant
B17 returned a kd var/kd wt with human TGFβ2 of 1.8.
